# Results from US20230322908A1 (AC IMMUNE, published 2023).
# Changes are numbered by the printed parent chain.
# T1: TP-51 peptide (aa 352-414 of SEQ ID NO:1) (human)
# T1 construct: Synthetic peptide (Pepscan)
# T1 peptide: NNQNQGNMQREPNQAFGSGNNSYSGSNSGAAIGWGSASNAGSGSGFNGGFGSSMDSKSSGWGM
# B1: ACI-7069-631B2-Ab1 (antibody, mouse IgG1, V domains shown)
# VH: EVQLQQSGPELVKPGASVKISCKTSGYTFTEYSIHWVKQSHGESLEWIGGINPDNGGTRYNQKFKGKATLTVDKSSSTAYMDLRSLTSEDSAVYYCARESWGQGTTLTVSS
# VL: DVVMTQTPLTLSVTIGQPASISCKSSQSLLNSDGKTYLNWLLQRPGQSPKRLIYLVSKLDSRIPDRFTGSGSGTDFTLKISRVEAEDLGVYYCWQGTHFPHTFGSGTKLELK
# notes: Mouse IgG1, kappa, from hybridoma; also called 631B2A2
# B2: ACI-7071-809D9-Ab2 (antibody, mouse IgG2b, V domains shown)
# VH: QVQLQQSGAELVRPGVSVKISCKGSGYKFTDYSMHWVKQSHTKSLEWIGVISTYYGDTTYNQKFKGKATITVDKSSSTAYMELARLTSEDSAIYYCATYGNFPASFSYWGQGTLVTVSA
# VL: DIVMTQAAPSIPVTPGESVSISCRSSKSLLHSNGNTYLYWFLQRPGQSPQLLIYRMSNLASGVPDRFSGSGSGTAFTLRISRVEAEDVGVYYCMQHLEYPFTFGSGTKLEIK
# notes: Mouse IgG2b, kappa, from hybridoma; also called 809D9C2
# B3: hACI-7069-633B12-Ab1_H19L19 (IgG4) (antibody, V domains shown)
# VH: QVQLVQSGAEVKKPGASVKVSCKTSGFTFTEYSMHWVRQAPGQRLEWIGGINPGNAGTSYNQKFKGRVTITVDTSASTAYMELSSLRSEDTAVYYCARESWGQGTTVTVSS
# VL: DVVMTQSPLSLPVTLGQPASISCKSSQSLLHSDAKTYLNWLQQRPGQSPKRLIYLVSKLDSRVPDRFSGSGSGTDFTLKISRVEAEDLGVYYCFQGTHFPHTFGQGTKLEIK
# B4: hACI-7069-633B12-Ab1_H20L18 (IgG4) (antibody, V domains shown)
# VH: B3 VH with Q1E
# VL: B3 VL with K50R
# B5: hACI-7069-633B12-Ab1_H16L14 (IgG1) (antibody, V domains shown)
# VH: B3 VH with Q1E, T24A, I48M
# VL: B3 VL with K50R, R62G
# notes: Human IgG1 / kappa
# B6: hACI-7069-633B12-Ab1_H19L18 (IgG1 isotype) (antibody, V domains shown)
# VH: B3 VH
# VL: B3 VL with K50R
# notes: Human IgG1 / kappa; also called hACI-7069-633B12-Ab1_H19L18 (hIgG1 isotype)
# B7: hACI-7069-633B12-Ab1_H20L19 (IgG1) (antibody, V domains shown)
# VH: B3 VH with Q1E
# VL: B3 VL
# notes: Human IgG1 / kappa
# B8: hACI-7069-633B12-Ab1_H15L18 (IgG1) (antibody, V domains shown)
# VH: B3 VH with T24A, I48M
# VL: B3 VL with K50R
# notes: Human IgG1 / kappa
# B9: hACI-7069-633B12-Ab1_H23L20 (IgG1) (antibody, V domains shown)
# VH: B3 VH with A56G
# VL: B3 VL with A34G, K50R, F94W
# notes: Human IgG1 / kappa
# B10: cACI-7069-633B12-Ab1 (human IgG1 chimeric) (antibody, V domains shown)
# VH: B1 VH with Y27F, I34M, E43K, D54N, R59S, D82E
# VL: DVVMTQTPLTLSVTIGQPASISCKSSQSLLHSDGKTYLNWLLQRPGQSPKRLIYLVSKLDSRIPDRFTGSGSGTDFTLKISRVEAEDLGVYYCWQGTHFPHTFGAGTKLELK
# notes: also called chimeric antibody
# Target: T2, recombinant human full-length TDP-43 (TAR DNA-binding protein 43), soluble (human, UniProt Q13148 1-414)
# T2 construct: Used on Luminex beads, coated on ELISA plates, and immobilized or injected in SPR; also called FL TDP-43; TDP-43 protein
# T2 sequence (Q13148 whole entry): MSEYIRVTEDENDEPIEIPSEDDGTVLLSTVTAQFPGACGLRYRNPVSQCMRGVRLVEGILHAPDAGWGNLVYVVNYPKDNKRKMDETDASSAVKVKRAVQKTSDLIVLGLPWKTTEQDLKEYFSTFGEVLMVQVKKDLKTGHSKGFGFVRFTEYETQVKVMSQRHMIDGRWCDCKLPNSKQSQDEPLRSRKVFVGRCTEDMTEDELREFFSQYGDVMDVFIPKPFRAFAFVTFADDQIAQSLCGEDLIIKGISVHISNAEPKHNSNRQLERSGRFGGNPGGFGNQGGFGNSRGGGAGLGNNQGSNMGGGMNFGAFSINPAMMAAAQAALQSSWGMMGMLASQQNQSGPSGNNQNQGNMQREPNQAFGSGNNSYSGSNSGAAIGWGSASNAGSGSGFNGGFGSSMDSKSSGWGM
# Assay: Luminex, FL TDP-43 on beads
# Procedure: Mice were euthanized and fusion with myeloma cells was performed using splenocytes from four individual mice. Screening for antibodies from the successfully fused hybridoma cell lines were performed as follows. Diluted (1:32) cell culture supernatants were analyzed using Luminex bead-based multiplex assay (Luminex, The Netherlands). Luminex beads were conjugated to FL TDP-43 and with capturing IgGs with anti-mouse IgG-Fc antibodies specific for the IgG1, IgG2a, IgG2b, IgG2c, and IgG3 subclasses (Jackson Immunoresearch, USA). Binding to beads conjugated to FL TDP-43 identified 386 hits derived from mice immunized with the FL TDP-43 liposomal vaccine.
# Luminex assays with serial dilution of antibodies were performed as described before to determine half maximal effective concentration (EC50) of binding of antibodies to FL TDP-43. In summary, all tested antibodies bind to full length TDP-43 with high affinity.
row,Binder,EC50
1,B1,< 0.01 nM
2,B2,< 0.01 nM

# Target: T2, recombinant human full-length TDP-43 …
# Assay: SPR, immobilized soluble TDP-43
# Procedure: (§1) Binding avidity to soluble or aggregated FL TDP-43 was evaluated by determing the dissociation constants (KD) using surface plasmon resonance (SPR; Biacore T200, GE Healthcare Life Sciences). Recombinant human soluble or aggregated FL TDP-43 were immobilized on a CM5 Series S sensor chip (GE Healthcare Life Sciences) by amine coupling. Soluble TDP-43 was immobilized at a concentration of 5 µg/ml in 10 mM sodium acetate (pH 4.5) with a flow rate of 5 µl/min for 420 seconds resulting in an immobilization level of 150 RU. Aggregated TDP-43 was immobilized at a concentration of 50 µg/ml in 10 mM sodium acetate (pH 4.5) with a flow rate of 5 µl/min for 840 seconds resulting in an immobilization level of 110 RU. Biotinylated TP-73 peptide (aa 181-190 of SEQ ID NO:1) was immobilized on a Series S Sensor Chip SA (GE Healthcare Life Sciences) at a concentration of 5 µg/ml in PBS-P⁺ with a flow rate of 5 µl/min for 30 seconds resulting in an immobilization level of 400 RU. […] The antibodies were injected at a flow rate of 50 µl/min for 90 seconds contact time and 700 seconds dissociation phase followed by three regenerations with 10 mM glycine-HCl pH 1.7. For the optimized SPR protocol the antibodies were diluted 3-fold starting from 300 nM and dilute down to 1.2 nM and injected for 300 seconds at 30 µl/min followed by 600 seconds dissociation. The surface was regenerated by one injection with 10 mM glycine-HCl pH 1.7. Results obtained from binding kinetics were double-referenced using a blank flow cell and a buffer cycle and were evaluated with a global 1:1 fitting model with RI. Avidities for 11 antibodies and two Fab fragments are depicted in Table 8. […] In addition, some antibodies show preferential binding to aggregated TDP-43 as compared with soluble TDP-43.
Binder,Kd,koff,kon
B1,486 nM,0.000774 s⁻¹,1590 M⁻¹ s⁻¹
B2,10.6 nM,0.000821 s⁻¹,77100 M⁻¹ s⁻¹

# Target: T2, recombinant human full-length TDP-43 …
# Assay: indirect ELISA, coated FL TDP-43
# Procedure: Antibody binding to human FL TDP-43 was determined using an indirect ELISA. ELISA plate coating with 1 µg/ml human FL TDP-43 was performed overnight in carbonate buffer at 4° C. Plates were washed with 0.05% Tween-20/PBS and then blocked with 1% bovine serum albumin (BSA) in 0.05% Tween-20/PBS for 1 hour at 37° C. Antibodies purified from hybridoma supernatants were then added in a 3-fold serial dilution starting at 1 µg/ml, and incubated for 2 hours at 37° C. after which the plates were washed. An AP-conjugated anti-mouse IgG secondary antibody (Jackson Immunoresearch Laboratories, United Kingdom) was added at 1/1000 dilution in 0.05% Tween-20/PBS for 1 hour at 37° C. After the final wash, plates were incubated with pNPP (Sigma-Aldrich, Switzerland) phosphatase substrate solution, and read at 405 nm using an ELISA plate reader (Tecan, Switzerland).
row,Binder,EC50
1,B1,0.053 µg/mL
2,B2,0.017 µg/mL

# Target: T3, recombinant human aggregated full-length TDP-43 (human, UniProt Q13148 1-414)
# T3 construct: also called aggregated TDP-43; aggregated FL TDP-43
# T3 sequence (Q13148 whole entry): as above
# Assay: SPR, immobilized aggregated TDP-43
# Procedure: as §1
Binder,Kd,koff,kon
B1,0.82 nM,7.1e-05 s⁻¹,86100 M⁻¹ s⁻¹
B2,2.25 nM,0.000216 s⁻¹,95900 M⁻¹ s⁻¹

# Target: T2, recombinant human full-length TDP-43 …
# Assay: SPR 8K, immobilized soluble TDP-43
# Procedure: (§2) The instrument was primed with running buffer PBS-P+ and flow cells (Fc) 1 and 2 of channels 1-8 were activated with a fresh solution of EDC/NHS (Amine Coupling Kit, 1:1 ratio of both reagents, GE Healthcare Life Sciences, BR-1006-33) at 10 µL/min for 420 sec. Soluble TDP-43 (Selvita) was diluted in sodium acetate pH 4.5 to a final concentration of 5 µg/mL and injected for 900 sec with a flow rate of 5 µL/min on Fc 2. All flow cells were quenched with 1 M ethanol amine (GE Healthcare Life Sciences, BR-1006-33), at 10 µL/min for 420 sec. Immobilization levels after ethanolamine quenching were 680 RU on all eight channels. Prior to analysis, two Startup cycles were run. Increasing mAbs concentrations were injected in single-cycle kinetics ranging from 1.2 to 100 nM, prepared from a 3-fold serial dilution in running buffer, with a contact time of 300 sec and a dissociation time of 900 sec at a flow rate of 30 µL/min. Each cycle was followed by one regeneration using 10 mM Glycine-HCl pH 1.7 with a contact time of 30 sec at 30 µL/min, followed by a stabilization period of 300 sec. Results obtained from single-cycle kinetics were double-referenced using the blank Fc 1 and buffer cycles and evaluated using Biacore 8 K evaluation software using the 1:1 kinetic fit model with RI and global Rmax. The following kinetic parameters were obtained: association rate constant (ka), dissociation rate constant (kd), affinity constant (KD) and saturation response (Rmax).
Binder,Kd,koff,kon
B3,0.508 nM,1.5e-05 s⁻¹,29000 M⁻¹ s⁻¹
B4,0.45 nM,1.4e-05 s⁻¹,32000 M⁻¹ s⁻¹

# Target: T1, TP-51 peptide (aa 352-414 of SEQ ID …)
# Assay: SPR 8K, mAb captured, TP-51 injected
# Procedure: (§3) The instrument was primed with running buffer PBS-P+. Fc 1-2 of channels 1-8 (8 K) were activated with a fresh solution of EDC/NHS(Amine Coupling Kit, 1:1 ratio of both reagents, GE Healthcare Life Sciences, BR-1006-33) at 10 µL/min for 420 sec and goat anti-human antibody (GE Healthcare Life Sciences, 29234600) was immobilized at 25 µg/mL in 10 mM sodium acetate pH 5 for 420 sec. Next, all Fc were quenched with 1 M ethanol amine(GE Healthcare Life Sciences, BR-1006-33), for 420 sec. Any non-covalently bound antibodies were removed by two regenerations with 10 mM Glycine-HCl pH 1.7 for 30 sec. Immobilization levels were evaluated following ethanolamine quenching (10000 RU for all channels).
# (§4) Each cycle started with non-covalent capture of humanized variants which were diluted in running buffer to a final concentration of 2 µg/mL and injected for 60 sec with a flow rate of 10 µL/min. TDP-43 mAbs were captured on channels 1-8, leaving Fc 1 as a blank Fc. Capture levels were evaluated following a 120 sec stabilization period after each mAb injection and ranged from 300-500 RU.
# (§5) Injections of TP-51 peptide (Pepscan) were performed in single-cycle kinetics with increasing concentrations ranging from 1.2-100 nM prepared from serial 3-fold dilutions. Injections were performed with contact times of 300 sec/injection at a flow rate of 25 µL/min. A dissociation phase of 3600 sec followed the final injection. Sensor surface was regenerated by one injection of 10 mM Glycine-HCl pH 1.7 at a flow rate of 10 µL/min for 120 sec, followed by a stabilization period of 300 sec. Results obtained from single-cycle kinetics were double-referenced using the blank Fc 1 and buffer cycles and evaluated by Biacore 8 K evaluation software with 1:1 kinetic fit model with RI and global Rmax. The following kinetic parameters were obtained: association rate constant (ka), dissociation rate constant (kd), affinity constant (KD) and saturation response (Rmax).
Binder,Kd,koff,kon
B3,2.3 nM,0.00026 s⁻¹,110000 M⁻¹ s⁻¹
B4,2.1 nM,0.00021 s⁻¹,97000 M⁻¹ s⁻¹

# Target: T2, recombinant human full-length TDP-43 …
# Assay: SPR 8K, immobilized soluble TDP-43; IgG1
# Procedure: as §2
Binder,Kd,koff,kon
B5,0.652 nM,2.2e-05 s⁻¹,47000 M⁻¹ s⁻¹
B6,0.205 nM,9.6e-06 s⁻¹,48000 M⁻¹ s⁻¹
B7,0.235 nM,1.8e-05 s⁻¹,47000 M⁻¹ s⁻¹
B8,0.113 nM,8.3e-06 s⁻¹,74800 M⁻¹ s⁻¹
B9,0.145 nM,6.4e-06 s⁻¹,44000 M⁻¹ s⁻¹
B10,0.15 nM,8.4e-06 s⁻¹,58000 M⁻¹ s⁻¹

# Target: T1, TP-51 peptide (aa 352-414 of SEQ ID …)
# Assay: SPR 8K, mAb captured, TP-51 injected; IgG1
# Procedure: as §3, §4, §5
Binder,Kd,koff,kon
B5,6.4 nM,0.0011 s⁻¹,170000 M⁻¹ s⁻¹
B6,2.8 nM,0.00015 s⁻¹,53000 M⁻¹ s⁻¹
B7,1.4 nM,0.00023 s⁻¹,170000 M⁻¹ s⁻¹
B9,6.2 nM,0.00021 s⁻¹,35000 M⁻¹ s⁻¹
B10,2.4 nM,9.3e-05 s⁻¹,39000 M⁻¹ s⁻¹
